Article PMC4148842
Each block holds one substance with its values, some of them ahead of it.

Experiments:
peptide II-44C = experiment: solid-phase binding assay (SPBA); conditions: read off a plot
peptide II-44G = experiment: solid-phase binding assay (SPBA); conditions: parent: est. 0.10; read off a plot
peptide II-44E = experiment: solid-phase binding assay (SPBA); conditions: read off a plot
peptide II-44A = experiment: solid-phase binding assay (SPBA); conditions: read off a plot
peptide II-44F = experiment: solid-phase binding assay (SPBA); conditions: read off a plot
peptide II-44B = experiment: solid-phase binding assay (SPBA); conditions: read off a plot
peptide II-44I = experiment: solid-phase binding assay (SPBA); conditions: read off a plot
peptide II-44J [1] = experiment: ELISA; SPBA on truncated and Ala-substituted II-44 variant peptides, carried out as for Fig. 1 (Fig. 4)
Toolkit peptide II-44 = experiment: ELISA; solid-phase binding assay (SPBA), Fig. 1: Toolkit II peptides, fibrillar type I collagen or GPP10 coated at 10 μg/ml on Immulon 2 HB wells; MMP preparation or Hpx at 83 nM in TBS with 1 mg/ml BSA and 0.1% Tween-20, 1 h at 24 °C; detected with an antibody to the MMP-13 hinge region (Hpx: anti-GST), A450
[2] = target: Fibrous bovine type I collagen (bovine) (UniProt P02453); experiment: as above
peptide II-44D = experiment: solid-phase binding assay (SPBA); conditions: parent: est. 0.19; read off a plot
peptide II-44H = experiment: solid-phase binding assay (SPBA); conditions: parent: est. 0.31; read off a plot
peptide II-44J [3] = experiment: solid-phase binding assay (SPBA); conditions: parent: est. 0.26; read off a plot
[4] = target: Monomeric collagen (type I) (UniProt P02453); experiment: ELISA; SPBA, increasing concentrations of MMP-13 or MMP-13(E204A) on wells coated with fibrillar or monomeric type I collagen (10 μg/ml); KD from fitted curves (Fig. 3)
[5] = target: Fibrous bovine type I collagen (bovine) (UniProt P02453); experiment: as above
Toolkit peptide II-13 = experiment: ELISA; solid-phase binding assay (SPBA), Fig. 1: Toolkit II peptides, fibrillar type I collagen or GPP10 coated at 10 μg/ml on Immulon 2 HB wells; MMP preparation or Hpx at 83 nM in TBS with 1 mg/ml BSA and 0.1% Tween-20, 1 h at 24 °C; detected with an antibody to the MMP-13 hinge region (Hpx: anti-GST), A450
Toolkit peptide II-24 = experiment: as above
Toolkit peptide II-49 = experiment: as above
Toolkit peptide II-56 = experiment: as above
Toolkit peptide II-52 = experiment: as above
Toolkit peptide II-55 = experiment: as above
Toolkit peptide II-17 = experiment: as above
Toolkit peptide II-53 = experiment: as above
Toolkit peptide II-50 = experiment: as above
Toolkit peptide II-21 = experiment: as above
Toolkit peptide II-28 = experiment: as above
Toolkit peptide II-45 = experiment: as above
Toolkit peptide II-51 = experiment: as above
Toolkit peptide II-54 = experiment: as above

Sequence of Fibrous bovine type I collagen (bovine) (P02453 162-1217, chain 1 of 2): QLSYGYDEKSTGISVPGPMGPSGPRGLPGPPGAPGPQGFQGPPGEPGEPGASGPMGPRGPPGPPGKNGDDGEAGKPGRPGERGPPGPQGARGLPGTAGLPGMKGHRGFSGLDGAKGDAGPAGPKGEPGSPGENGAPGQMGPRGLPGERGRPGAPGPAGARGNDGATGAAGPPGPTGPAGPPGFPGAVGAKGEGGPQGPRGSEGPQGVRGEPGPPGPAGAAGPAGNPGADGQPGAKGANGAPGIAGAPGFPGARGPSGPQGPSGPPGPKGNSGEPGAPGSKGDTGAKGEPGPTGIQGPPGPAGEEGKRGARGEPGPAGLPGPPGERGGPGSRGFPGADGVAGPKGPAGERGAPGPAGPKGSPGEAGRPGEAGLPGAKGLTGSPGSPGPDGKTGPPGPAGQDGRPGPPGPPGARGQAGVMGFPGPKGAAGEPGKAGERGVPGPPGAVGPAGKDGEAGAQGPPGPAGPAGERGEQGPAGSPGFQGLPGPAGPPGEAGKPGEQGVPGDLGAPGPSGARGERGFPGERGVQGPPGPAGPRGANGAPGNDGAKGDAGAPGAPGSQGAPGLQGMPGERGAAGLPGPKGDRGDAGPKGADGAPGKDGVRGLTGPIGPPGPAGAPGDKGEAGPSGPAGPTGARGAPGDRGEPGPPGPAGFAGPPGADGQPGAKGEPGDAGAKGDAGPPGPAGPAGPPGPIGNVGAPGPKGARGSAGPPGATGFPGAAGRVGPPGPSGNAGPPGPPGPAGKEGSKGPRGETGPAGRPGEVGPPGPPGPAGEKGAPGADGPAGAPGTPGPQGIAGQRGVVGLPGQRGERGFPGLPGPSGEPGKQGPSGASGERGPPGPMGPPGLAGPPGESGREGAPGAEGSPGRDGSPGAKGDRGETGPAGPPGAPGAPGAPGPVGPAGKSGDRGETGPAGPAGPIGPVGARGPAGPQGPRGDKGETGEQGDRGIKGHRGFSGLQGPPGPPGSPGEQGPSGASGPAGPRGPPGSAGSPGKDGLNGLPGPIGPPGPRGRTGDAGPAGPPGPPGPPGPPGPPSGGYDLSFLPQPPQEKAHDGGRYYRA
Sequence of Fibrous bovine type I collagen (bovine) (P02465 80-1117, chain 2 of 2, further chain): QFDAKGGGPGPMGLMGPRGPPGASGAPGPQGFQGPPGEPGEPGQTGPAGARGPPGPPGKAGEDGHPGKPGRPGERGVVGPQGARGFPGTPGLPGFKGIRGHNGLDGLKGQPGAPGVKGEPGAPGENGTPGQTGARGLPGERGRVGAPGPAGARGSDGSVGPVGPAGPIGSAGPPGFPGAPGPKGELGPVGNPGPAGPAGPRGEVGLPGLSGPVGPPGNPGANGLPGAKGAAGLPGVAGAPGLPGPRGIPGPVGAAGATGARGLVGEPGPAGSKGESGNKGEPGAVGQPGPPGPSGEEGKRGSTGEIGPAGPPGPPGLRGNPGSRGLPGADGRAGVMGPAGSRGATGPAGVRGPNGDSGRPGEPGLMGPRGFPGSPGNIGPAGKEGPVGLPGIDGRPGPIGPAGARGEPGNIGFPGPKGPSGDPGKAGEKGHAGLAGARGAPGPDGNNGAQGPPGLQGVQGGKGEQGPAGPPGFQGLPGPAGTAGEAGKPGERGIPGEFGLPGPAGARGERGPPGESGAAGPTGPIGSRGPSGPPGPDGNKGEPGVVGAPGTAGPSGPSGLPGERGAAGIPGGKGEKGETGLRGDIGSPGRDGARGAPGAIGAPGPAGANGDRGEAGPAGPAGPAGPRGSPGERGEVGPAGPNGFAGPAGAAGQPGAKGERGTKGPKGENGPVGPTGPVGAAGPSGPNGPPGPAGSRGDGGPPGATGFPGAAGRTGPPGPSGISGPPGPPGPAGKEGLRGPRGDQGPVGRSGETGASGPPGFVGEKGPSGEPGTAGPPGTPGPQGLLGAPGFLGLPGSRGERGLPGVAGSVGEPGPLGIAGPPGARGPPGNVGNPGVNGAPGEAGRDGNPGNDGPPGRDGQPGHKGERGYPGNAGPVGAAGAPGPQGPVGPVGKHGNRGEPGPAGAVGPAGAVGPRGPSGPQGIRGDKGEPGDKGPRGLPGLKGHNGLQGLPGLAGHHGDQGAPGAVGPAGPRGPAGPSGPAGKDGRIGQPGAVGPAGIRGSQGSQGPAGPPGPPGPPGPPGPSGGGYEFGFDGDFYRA
Sequence of Monomeric collagen (type I) (P02453 162-1217, chain 1 of 2): as the sequence (P02453 162-1217, chain 1 of 2) above
Sequence of Monomeric collagen (type I) (P02465 80-1117, chain 2 of 2, further chain): as the sequence (P02465 80-1117, chain 2 of 2, further chain) above

- A450 (peptide II-44J [1]): 0.4 A450
- A450 (Toolkit peptide II-44): 0.8 A450
Substance: MMP-13 GST-Hpx domain (domain or fragment)

- A450 [2]: > 1 A450
Substance: proMMP-13 (from UniProt P45452 20-471) (enzyme)

The next lines start with the substance.

Substance: MMP-13 (from UniProt P45452) E204A
- response (peptide II-44C; parent: est. 0.18): 0.87 A450
- response (peptide II-44G): 0.57 A450
- response (peptide II-44E; parent: est. 0.16): 0.95 A450
- response (peptide II-44A; parent: est. 0.19): 1.1 A450
- response (peptide II-44F; parent: est. 0.08): 0.57 A450
- response (peptide II-44B; parent: est. 0.09): 0.15 A450
- response (peptide II-44I; parent: est. 0.20): 1.1 A450

Substance: proMMP-13 (from UniProt P45452) E204A
- response (peptide II-44C; parent: est. 0.24): 0.23 A450
- response (peptide II-44E; parent: est. 0.33): 0.31 A450
- response (peptide II-44A; parent: est. 0.41): 0.41 A450
- response (peptide II-44F; parent: est. 0.09): 0.12 A450
- response (peptide II-44D): 0.15 A450
- response (peptide II-44B; parent: est. 0.08): 0.08 A450
- response (peptide II-44H): 0.29 A450
- response (peptide II-44I; parent: est. 0.41): 0.36 A450
- response (peptide II-44J [3]): 0.29 A450

Substance: MMP-13(E204A) (enzyme)
- A450 (peptide II-44J [1]): 0.8 A450
- Kd [4]: 26 nM
- Kd [5]: 52 nM
- A450 (Toolkit peptide II-13): > 0.3 A450
- A450 (Toolkit peptide II-24): < 0.2 A450
- A450 (Toolkit peptide II-49): > 0.3 A450
- A450 (Toolkit peptide II-56): > 0.3 A450
- A450 (Toolkit peptide II-52): > 0.3 A450
- A450 (Toolkit peptide II-55): > 0.3 A450
- A450 (Toolkit peptide II-17): > 0.3 A450
- A450 (Toolkit peptide II-44): > 1.2 A450
- A450 (Toolkit peptide II-53): > 0.3 A450
- A450 (Toolkit peptide II-50): > 0.3 A450
- A450 (Toolkit peptide II-21): > 0.3 A450
- A450 (Toolkit peptide II-28): < 0.2 A450
- A450 (Toolkit peptide II-45): > 0.3 A450
- A450 (Toolkit peptide II-51): > 0.3 A450
- A450 (Toolkit peptide II-54): > 0.3 A450
